± gives the uncertainty stated by the source.
Assay: protein stability index of a GFP-peptide fusion (yeast GPS) (PSI 1-4); higher = more stable; sorted into four equal gates, so the index is relative within each strain
Procedure, shortened: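 Sequencing reads from sorted gates were used to score each peptide. The library consisted of tiled 17-residue yeast protein peptides fused downstream of GFP on a Cherry-expressing plasmid, pooled and carried in yeast. Mid-log cultures in leucine-free medium were split into four equal gates by GFP/Cherry ratio, and each gate's plasmids were PCR-amplified and Illumina-sequenced. The protein stability index adds up, over all gates, the read frequency multiplied by the gate number.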

Sequence	protein stability index (doa10∆)	protein stability index (pdr5∆)	protein stability index (san1∆)	protein stability index (ubr1∆)
IQRFFALHYLVPFIIAA [COB]	1.39 ± 0.052	1.17 ± 0.063	1.11 ± 0.15	1.09 ± 0.036
HTDVSSSLEARYFFYLS [RPN3]	2.68 ± 0.083	3.23 ± 0.1	2.72 ± 0.11	2.85 ± 0.076
DNIYRNLQKIDKDSEEL [MED4]	2.85 ± 0.078	3.16 ± 0.058	2.85 ± 0.049	3.01 ± 0.054
PPEEFSNTIDELSTDII [SRB7]	3.1 ± 0.057	3.16 ± 0.068	3.26 ± 0.069	3.05 ± 0.06
FDDILKVGAEMMMQQQL [MED2]	2.66 ± 0.11	2.44 ± 0.093	2.53 ± 0.13	2.46 ± 0.086
PNFFLTLISENWWHSEF [BRR2]	2.8 ± 0.22	2.27 ± 0.11	2.59 ± 0.092	2.85 ± 0.25
QNIILRSTMMKFLKIAS [RPN3]	2.15 ± 0.072	2.42 ± 0.067	2.86 ± 0.077	3.03 ± 0.048
DSFENYFNQLKPYYFSN [RPN12]	2.66 ± 0.083	2.95 ± 0.1	2.97 ± 0.058	3.02 ± 0.056
NESSSNTTVISDKQRRL [DIS3]	3.15 ± 0.086	3.21 ± 0.086	2.98 ± 0.061	3.05 ± 0.058
EVTKEEDIIANYASVYP [RRP43]	2.77 ± 0.07	2.95 ± 0.057	3.06 ± 0.094	3.06 ± 0.055
RKRVYNIKFLSKLEGTI [ESC2]	–	3.51 ± 0.2	–	3.21 ± 0.16
LEQVEFEKNTILQQRSK [MED4]	2.94 ± 0.22	3.44 ± 0.13	2.77 ± 0.11	3.27 ± 0.1
INDIRDDDIEKQEQEEK [YCG1]	2.96 ± 0.082	2.79 ± 0.07	2.94 ± 0.055	3.12 ± 0.055
VAIQQGDIKPEFSPRLH [YML103C/NUP188]	2.45 ± 0.11	2.84 ± 0.096	3.07 ± 0.099	2.83 ± 0.068
GSVFNMNGNTNANTVFA [YOR098C/NUP1]	2.29 ± 0.095	3 ± 0.12	3.01 ± 0.17	2.44 ± 0.066
KSNRSYSIALSNVAAIF [GAL11]	1.76 ± 0.08	1.67 ± 0.097	1.4 ± 0.27	1.43 ± 0.064
ALYIAMMTRRVVMAMYN [RET1]	3.11 ± 0.28	–	–	–
LSIELEGGKNQAELLQL [YJL039C/NUP192]	2.85 ± 0.14	3.11 ± 0.099	3.31 ± 0.21	2.67 ± 0.11
TKPEVASDMSDEDIITI [CDC53]	2.89 ± 0.14	2.56 ± 0.24	–	2.92 ± 0.12
HKYVLTLQLYMVHREFL [RGR1]	1.38 ± 0.039	1.47 ± 0.037	1.86 ± 0.055	2.1 ± 0.034
QFLEQGLSIHPTQITQY [SRP68]	2.17 ± 0.058	2.22 ± 0.076	2.27 ± 0.062	2.17 ± 0.067
SDRECPKCHSRENVFFQ [RPB9]	2.88 ± 0.062	2.74 ± 0.061	2.47 ± 0.058	2.79 ± 0.04
NIPWDVPGMPAPIKKII [PRP8]	2.75 ± 0.3	2.91 ± 0.19	2.8 ± 0.28	3.05 ± 0.2
NDRKQTTVSNDLENSPL [SSN2]	2.98 ± 0.079	3.11 ± 0.056	3.13 ± 0.041	3.08 ± 0.038
AISTDKINPFGFEQVKI [RRI2]	2.75 ± 0.056	2.94 ± 0.05	2.72 ± 0.061	2.86 ± 0.061
GIACAGKGLQSAIDVLD [RPN2]	2.15 ± 0.068	2.52 ± 0.077	2.48 ± 0.1	2.75 ± 0.071

Sequence	protein stability index (doa10∆)	protein stability index (pdr5∆)	protein stability index (san1∆)	protein stability index (ubr1∆)
QKRNAHGYFLQDKEKID [ITC1]	3.32 ± 0.098	3.38 ± 0.071	3.28 ± 0.048	3.42 ± 0.056
ARVILYLKNVLFAFNGV [SIN4]	2.38 ± 0.064	1.57 ± 0.06	1.42 ± 0.077	1.38 ± 0.042
LNHILEKSTQLQQKHEL [YGR119C/NUP57]	2.52 ± 0.054	2.91 ± 0.042	2.66 ± 0.034	2.82 ± 0.035
GSKMEAKNEDDPAHSLN [AAR2]	2.34 ± 0.14	1.27 ± 0.13	1.23 ± 0.26	1.14 ± 0.15
PKELVPSHEKLKESYSQ [CDC53]	3.13 ± 0.077	3.02 ± 0.067	2.51 ± 0.14	2.81 ± 0.073
MDVDIGCYFEEKRYDDK [CSN12]	3.42 ± 0.087	3.19 ± 0.15	3.01 ± 0.11	3.33 ± 0.15
IELSVPDRQSMDSRVAH [SRB5]	3.11 ± 0.17	2.96 ± 0.14	3.17 ± 0.13	3.16 ± 0.089
IALNLASKKFGKICLIL [SSN2]	2.41 ± 0.11	2.83 ± 0.062	2.9 ± 0.071	3.12 ± 0.061
LIENCKKRNMPLQSIPE [SWI1]	2.86 ± 0.068	2.86 ± 0.056	3.01 ± 0.051	3.05 ± 0.046
EEAKEEVTEEQAEATEW [RPS0A]	3.48 ± 0.12	3.49 ± 0.1	3.02 ± 0.13	3.64 ± 0.091
WLYVYETPNQDATYDSA [RPN6]	2.62 ± 0.075	2.75 ± 0.067	2.67 ± 0.068	2.49 ± 0.055
LNAKYQSLGLDDLQKFN [ISW2]	3.03 ± 0.066	3 ± 0.061	2.74 ± 0.049	2.7 ± 0.044
IVVQLNGRLNKCGVISP [RPS22A]	3.25 ± 0.19	3.35 ± 0.14	2.98 ± 0.093	3.49 ± 0.079
VANSPNKRLDVIDGKLP [YDL088C/ASM4]	3.03 ± 0.068	2.8 ± 0.067	2.42 ± 0.094	2.11 ± 0.058
MAGKVLILTSHNMKAYY [BRR2]	2.1 ± 0.06	2.46 ± 0.058	1.6 ± 0.094	2.4 ± 0.068
TTPKKIKHKHKKVKLAV [RPS31]	2.19 ± 0.052	1.99 ± 0.1	1.34 ± 0.2	1.91 ± 0.059
ALIDTEFANFELKDICS [YML103C/NUP188]	2.12 ± 0.063	2.49 ± 0.06	2.65 ± 0.063	2.16 ± 0.037
DRTQDRADVEDESNDID [RPC37]	3.33 ± 0.087	3.52 ± 0.092	3.13 ± 0.11	3.4 ± 0.073
PHGFPSRMTVGKMIELI [RET1]	2.54 ± 0.11	2.56 ± 0.11	2.77 ± 0.084	2.46 ± 0.092
PYPGSPMHSIMPNSSLQ [DSN1]	2.85 ± 0.091	2.88 ± 0.052	2.63 ± 0.057	2.83 ± 0.034
PEKTSTELVDGRENFVY [SIR3]	3.08 ± 0.099	3.25 ± 0.15	3.1 ± 0.12	3 ± 0.088
DPPNEGDPFDYKAQADT [RPB3]	3.18 ± 0.13	3.42 ± 0.12	3.34 ± 0.12	3.12 ± 0.073
MVGLVDPDKLKPNDLVG [RPT5]	2.87 ± 0.097	2.94 ± 0.14	2.94 ± 0.062	2.75 ± 0.069
LINLAKTRVGSVTAQVY [RPC82]	2.41 ± 0.096	1.66 ± 0.065	1.16 ± 0.18	1.45 ± 0.11
SILVIVQKILPLSNEVF [SWI1]	1.37 ± 0.045	1.34 ± 0.039	1.3 ± 0.073	1.56 ± 0.037

Reference: the supplement of paper PMC9732359
